Source: patent US20080227698A1, “OLIGOPEPTIDES FOR TREATMENT OF OSTEOPOROSIS AND OTHER BONE DISEASES AND METHODS THEREOF” (Washington University, priority 2005, published 2008)

What was measured:
Set-up in all cases: plasmid pCS-Myc-hLRP6 containing the full-length human LRP6 cDNA; HA; expressed in transfected cells; host or cells: human HT1080 cells, stably transduced (pLNCX2 retroviral vector)
LRP6 [1] = molecular target: T1, LRP6 (Homo sapiens, UniProt O75581); assay: ^125I-Mesd binding to LRP6, competition by Mesd or oligopeptide (FIG. 10C); settings: compared with LRP5 (up to about 10-fold)
T1 sequence (O75581 20-1613): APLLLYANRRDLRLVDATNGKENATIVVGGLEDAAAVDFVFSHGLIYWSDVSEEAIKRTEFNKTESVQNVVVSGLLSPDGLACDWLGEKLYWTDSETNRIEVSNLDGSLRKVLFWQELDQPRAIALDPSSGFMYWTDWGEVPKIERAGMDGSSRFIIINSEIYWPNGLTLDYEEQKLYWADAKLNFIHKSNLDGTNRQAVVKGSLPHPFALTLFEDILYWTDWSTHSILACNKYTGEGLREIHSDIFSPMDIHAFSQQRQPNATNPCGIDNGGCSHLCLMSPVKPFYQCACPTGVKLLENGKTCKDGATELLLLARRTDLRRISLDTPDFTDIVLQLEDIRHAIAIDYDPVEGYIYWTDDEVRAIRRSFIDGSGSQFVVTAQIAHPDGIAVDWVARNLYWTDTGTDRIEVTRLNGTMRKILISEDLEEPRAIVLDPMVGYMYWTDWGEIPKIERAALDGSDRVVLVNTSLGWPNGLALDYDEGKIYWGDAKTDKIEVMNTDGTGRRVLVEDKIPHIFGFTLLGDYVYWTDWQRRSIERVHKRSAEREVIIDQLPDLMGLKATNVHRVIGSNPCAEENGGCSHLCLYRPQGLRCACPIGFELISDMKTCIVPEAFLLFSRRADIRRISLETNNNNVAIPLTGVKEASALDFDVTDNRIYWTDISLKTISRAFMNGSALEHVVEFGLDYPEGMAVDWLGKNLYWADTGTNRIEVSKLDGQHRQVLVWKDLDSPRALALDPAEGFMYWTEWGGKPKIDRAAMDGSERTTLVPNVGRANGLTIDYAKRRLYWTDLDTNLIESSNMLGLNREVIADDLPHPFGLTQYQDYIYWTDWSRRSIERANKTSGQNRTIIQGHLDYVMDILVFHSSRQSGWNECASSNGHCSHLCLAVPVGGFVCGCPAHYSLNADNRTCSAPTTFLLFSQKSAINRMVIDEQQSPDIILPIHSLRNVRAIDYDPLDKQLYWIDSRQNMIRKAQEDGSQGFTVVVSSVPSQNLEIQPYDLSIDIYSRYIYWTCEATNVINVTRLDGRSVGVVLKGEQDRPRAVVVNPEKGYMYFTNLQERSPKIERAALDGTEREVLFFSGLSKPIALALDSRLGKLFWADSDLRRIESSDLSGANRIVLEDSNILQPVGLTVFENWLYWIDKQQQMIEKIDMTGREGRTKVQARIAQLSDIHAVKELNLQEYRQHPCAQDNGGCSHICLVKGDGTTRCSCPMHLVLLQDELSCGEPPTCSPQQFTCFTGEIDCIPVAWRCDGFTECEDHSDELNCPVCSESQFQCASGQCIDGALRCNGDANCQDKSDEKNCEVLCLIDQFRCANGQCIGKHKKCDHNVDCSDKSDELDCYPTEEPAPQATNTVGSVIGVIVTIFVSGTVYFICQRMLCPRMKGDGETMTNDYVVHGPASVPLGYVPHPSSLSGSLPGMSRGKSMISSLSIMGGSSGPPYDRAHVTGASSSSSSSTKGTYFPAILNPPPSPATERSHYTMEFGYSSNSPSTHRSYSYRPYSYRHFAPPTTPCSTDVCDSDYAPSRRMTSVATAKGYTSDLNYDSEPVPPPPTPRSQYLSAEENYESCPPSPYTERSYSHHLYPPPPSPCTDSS
Procedure: In order to investigate the binding of Mesd polypeptide and an Mesd oligopeptide to either LRP5 or LRP6, binding assays were performed using ^125I-Mesd or ^125I-DKK1 (FIG. 10).

LRP6 [2] = molecular target: T1, LRP6; assay: LRP6-mediated ^125I-Mesd degradation in LRP6-transduced HT1080 cells; type: cell-based; settings: ^125I-Mesd 5 nM, 4 hours at 37° C.
Procedure: Ligand degradation was performed using the methods as described (Li, Y., J. Biol. Chem. 275: 17187-17194, 2000). Briefly, 2×10^5 cells were seeded into 12-well dishes 1 day prior to assay. Pre-warmed assay buffer (minimal Eagle's medium containing 0.6% BSA with radioligand, 0.6 ml/well) was added to cell monolayers in the absence or the presence of unlabeled 500 nM RAP or 500 nM Mesd, followed by incubation for 4 hours at 37° C. Thereafter, the medium overlying the cell monolayers was removed and proteins were precipitated by addition of BSA to 10 mg/ml and trichloroacetic acid to 20%. Degradation of radioligand was defined as the appearance of radioactive fragments in the overlying medium that were soluble in 20% trichloroacetic acid. Kinetic analysis of endocytosis LRP6-transduced HT1080 cells were plated in 12-well plates at a density of 2×10^5 cells/well and used after overnight culture. Cells were rinsed twice in ice-cold assay buffer (minimal Eagle's medium containing 0.6% BSA), and ^125I-anti-HA IgG was added at 1 nM final concentration in cold assay buffer (0.5 ml/well). The binding of ^125Ianti- HA IgG was carried out at 4° C. for 90 minutes with gentle rocking. Unbound ^125I-anti-HA IgG was removed by washing cell monolayers three times with cold assay buffer. Ice-cold stop/strip solution (0.2 M acetic acid, pH 2.6, 0.1 M NaCl) was added to one set of plates without warming up and kept on ice. The remaining plates were then placed in a 37° C. water bath and 0.5 ml assay buffer prewarmed to 37° C. was quickly added to cell monolayers to initiate internalization. After each time point, the plates were quickly placed on ice and the assay buffer was replaced with cold stop/strip solution. ^125I-anti-HA IgG that remained on the cell surface was stripped by incubation of cell monolayers with cold stop/strip solution for a total of 20 minutes (0.75 ml for 10 minutes, twice) and counted. Cell monolayers were then solubilized with low-SDS lysis buffer and counted. […] The fraction of internalized ^125I-anti-HA IgG after each time point was calculated and plotted. […]

LRP6 [3] = molecular target: T1, LRP6; assay: Cell surface Myc-DKK1 binding and immunodetection on LRP6-transduced HT1080 cells; settings: 1 μM Mesd, room temperature 60 minutes, immunofluorescence
Excerpt: Values are the means of triple determinations with the s.d. indicated by error bars. Bar, 10 μm.

B1: Mesd: recombinant wild-type mouse Mesd, polyhistidine tail at the N-terminus, lacks the signal peptide, expressed in E. coli (protein)
chain: ADTPGEATPPPRKKKDIRDYNDADMARLLEQWEKDDDIEEGDLPEHKRPSAPIDFSKLDPGKPESILKMTKKGKTLMMFVTVSGNPTEKETEEITSLWQGSLFNANYDVQRFIVGSDRAIFMLRDGSYAWEIKDFLVSQDRCAEVTLEGQMYPGKGGGSKEKNKTKPEKAKKKEGDRKPRASKEDNRAGSRREDL
modifications: left off: small tags and cut ends
notes: recombinant wild-type mouse Mesd, polyhistidine tail at the N-terminus, lacks the signal peptide, expressed in E. coli
Reduction of binding of ^125I-Mesd to LRP6 (LRP6 [1]): even greater reduction | Inhibition of ^125I-Mesd degradation (LRP6 [2]; 500 nM unlabeled competitor): completely | ^125I-Mesd degradation level (LRP6 [2]; HT1080 cells transduced with LRP6): 320 fmoles/mg cell protein | Effect on binding of Myc-DKK1 to LRP6 at the cell surface (LRP6 [3]): completely blocked
